# Results from patent publication US20180346562A1 (ANAPTYSBIO, published 2018).
# T1: human IL-33 (human, UniProt O95760 112-270, limits assumed)
# T1 sequence (looked up): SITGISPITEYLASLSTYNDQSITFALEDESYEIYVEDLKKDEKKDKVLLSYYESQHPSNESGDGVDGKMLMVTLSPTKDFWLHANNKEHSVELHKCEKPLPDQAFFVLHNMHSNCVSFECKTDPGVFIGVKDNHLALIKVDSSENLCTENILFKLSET
# T2: cynomolgus IL-33 (cynomolgus, UniProt A0A2K5W3I1 112-269)
# T2 construct: also called cynoIL-33; cIL-33
# T2 sequence: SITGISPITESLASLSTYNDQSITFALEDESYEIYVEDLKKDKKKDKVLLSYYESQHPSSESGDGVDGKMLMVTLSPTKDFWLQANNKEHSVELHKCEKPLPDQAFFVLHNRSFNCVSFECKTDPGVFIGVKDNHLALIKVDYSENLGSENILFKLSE
# Assays:
# human IL-33 [1] = molecular target: T1, human IL-33; experiment: cell-based or functional assay
# cynomolgus IL-33 = molecular target: T2, cynomolgus IL-33; experiment: KinExA solution-phase equilibrium titration: APE4909 at a fixed concentration incubated with cynomolgus IL-33 as titrant, free antibody captured on cIL-33-coated beads
# Procedure: (§1) The ability of the APE4909 antibody described in Example 2 to interact with IL-33 was analyzed biophysically using a KINEXA™ 3200 biosensor platform from Sapidyne Instruments (Boise, Id.). Binding experiments for human and cynomolgus IL-33 (cynolL-33) were conducted as described below and were run twice independently. Conditions for the first experiment are shown non-parenthetically, while conditions for the second experiment are provided parenthetically.
# Solid phase was prepared using azlactone-coated beads coated using a 50 μg/mL solution of histidine-tagged human IL-33. Binding experiments were performed in 1×PBS pH 7.4, 0.1% BSA. The APE4909 antibody at 10 pM (or 20 pM) final concentration was incubated with IL-33 at 200 pM to 3.4 fM (or 400 pM to 6.7 fM) final concentrations for 3 (or 4) days at 4° C. […] Free antibody was detected with an ALEXAFLUOR™ 647-(Life Technologies, Carlsbad, Calif.) labeled donkey anti-human antibody. […]
# Experiments were performed as described above for human IL-33, except that the APE4909 antibody at 20 pM and 100 pM final concentration was incubated with cIL-33 at 3 nM to 315 fM final concentrations for 24 hours at 4° C. […] Free antibody was detected with an ALEXAFLUOR™ 647-(Life Technologies, Carlsbad, Calif.) labeled donkey anti-human antibody. […]
# human IL-33 [2] = molecular target: T1, human IL-33; experiment: KinExA, solution equilibrium, beads coated with histidine-tagged human IL-33
# Procedure: as §1
# Solid phase was prepared using azlactone-coated beads coated using a 50 μg/mL solution of histidine-tagged human IL-33. Binding experiments were performed in 1×PBS pH 7.4, 0.1% BSA. The APE4909 antibody at 10 pM (or 20 pM) final concentration was incubated with IL-33 at 200 pM to 3.4 fM (or 400 pM to 6.7 fM) final concentrations for 3 (or 4) days at 4° C. 5 mL (or 10 mL) of each mixture was applied to the beads coated with IL-33 at a rate of 0.25 mL/min for 1200 seconds (or 2400 seconds). Free antibody was detected with an ALEXAFLUOR™ 647-(Life Technologies, Carlsbad, Calif.) labeled donkey anti-human antibody. All data fit using standard KINEXA™ software.
IC50 of inhibition of IL-33-mediated release of IL-5 in primary human basophils (human IL-33 [1]) [nM],Kd (cynomolgus IL-33) [nM],IC50 of inhibition of IL-33-mediated release of IL-9 from primary human basophils (human IL-33 [1]) [nM],Kd (human IL-33 [2]) [nM],Molecule
20,–,–,–,monomeric human ST2 protein (APE3906) (from UniProt Q01638 19-328) (receptor)
2.2,0.035,3,0.001,"APE4909 antibody (antibody, V domains shown, the claims treat these entries as variable regions; It was detected with an anti-human antibody; also called APE04909; APE4909.02 (lot suffix)) VH: QVQLMQSGAEVKKPGASVKVSCKASGYTFTSYWMHWVRQAPGQGLEWMGTIYPRNSNTDYNQKFKARVTMTRDTSTSTVYMELSSLRSEDTAVYYCARPLYYYLTSPPTLFWGQGTLVTVSS VL: DIQLTQSPSFLSASVGDRVTITCKASQDVGTAVAWYQQKPGKAPKLLIYWASTRHTGVPSRFSGSGSGTEFTLTISSLQPEDFATYYCQQAKTYPFTFGSGTKLEIKR"
